In assay [1] the target is 149 peptide/HLA-A2 complex on T2 cells (human). The assay is described as follows: cell-based or functional assay.
The target of assay [2] is 264 peptide/HLA-A2 complex on T2 cells (human). Put plainly: cell-based or functional assay.

Turning to “264 scTCR-IL-2 fusion protein (from UniProt P60568 21-153)”, the values for the conjugation between CTLL-2 cells and peptide-loaded T2 cells (flow cytometry, percent conjugates) in assay [1] and in assay [2] were 0.88% and 3.25%, respectively.
